These results are taken from article PMC314469, “Protein Interaction Networks by Proteome Peptide Scanning” (PLoS Biology, 2004).

The target in the assay is T1, Abp1 SH3 (ABP1_YEAST), P15891.
T1 chain: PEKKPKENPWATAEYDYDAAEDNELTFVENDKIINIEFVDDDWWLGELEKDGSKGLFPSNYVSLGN
Kind of assay: SPOT array.
For the molecule SNKTHTEQNNPPKP [YOR290C 408-421], the normalised SPOT signal, Boehringer light units (BLU); mean over the file's lines of this peptide is 83.8. SEQDATDPASAKP [YIL115C 491-503]: the normalised SPOT signal, Boehringer light units (BLU); mean over the file's lines of this peptide stood at 49.3. SDDYEELATIPYRP [YOR168W 585-598] returned a normalised SPOT signal, Boehringer light units (BLU); mean over the file's lines of this peptide of 45.7.

Turning to SNGLLLEPSALRP [YOR023C 198-210], the normalised SPOT signal, Boehringer light units (BLU); mean over the file's lines of this peptide was determined as 0.

Molecule SDTKTVVPVTNKP [YML035C 237-249] yielded a normalised SPOT signal, Boehringer light units (BLU); mean over the file's lines of this peptide of 28.6. Regarding SGDAALVKFVPSKP [YBR118W 394-407], the normalised SPOT signal, Boehringer light units (BLU); mean over the file's lines of this peptide stood at 52.8.

Consider SKLKITRNPNPSKP [YHR208W 26-39], for which the normalised SPOT signal, Boehringer light units (BLU); mean over the file's lines of this peptide is 115. Regarding SEWNWPQPVILKP [YKR002W 264-276], the normalised SPOT signal, Boehringer light units (BLU); mean over the file's lines of this peptide was found to be 54.4. On to SLKLNSKPVELKP [YJL041W 617-629], for which the normalised SPOT signal, Boehringer light units (BLU); mean over the file's lines of this peptide is 27.9. With SHEHEEPTYHPPKP [YMR231W 646-659], the normalised SPOT signal, Boehringer light units (BLU); mean over the file's lines of this peptide was 9.2. SKAKDKARGNPEKP [YJL036W 11-24]: the normalised SPOT signal, Boehringer light units (BLU); mean over the file's lines of this peptide was 124. In turn, SLTIPFLPVLPQKP [YDR178W 31-44] registered a normalised SPOT signal, Boehringer light units (BLU); mean over the file's lines of this peptide of 129. SDSEENEPRRKKP [YMR014W 341-353] displayed a normalised SPOT signal, Boehringer light units (BLU); mean over the file's lines of this peptide of 93.2. In turn, SGNKEAIPALIKP [YKL157W 770-782] displayed a normalised SPOT signal, Boehringer light units (BLU); mean over the file's lines of this peptide of 82.8. The figure for SKIVTLPPTIFKP [YOR341W 710-722] is 159; for SKAGDEERFLPNRP [YPR117W 1308-1321] it is 144; for SKQFLLSPIFAKP [YHR099W 1329-1341] it is 169.

For SIQSKIMLESPKKP [YJL147C 308-321], the normalised SPOT signal, Boehringer light units (BLU); mean over the file's lines of this peptide stood at 289.

SSSALLRRTIPKRP [YDL142C 9-22] registered a normalised SPOT signal, Boehringer light units (BLU); mean over the file's lines of this peptide of 253. The figure for SLPTSSSAKAPLRP [YOR266W 165-178] is 37.9; for SNDDVEFYYPPVKP [YLR155C 216-229] it is 92.8.

On to SATPRRASSRPTRP [YNR049C 146-159], for which the normalised SPOT signal, Boehringer light units (BLU); mean over the file's lines of this peptide came out at 88.9. As to SSSLPLPKLRPPRP [YKL097C 59-72], the normalised SPOT signal, Boehringer light units (BLU); mean over the file's lines of this peptide came to 5200. Regarding SIKEEKKPFDKKP [YMR284W 586-598], the normalised SPOT signal, Boehringer light units (BLU); mean over the file's lines of this peptide worked out at 92.3.

Turning to SDISAMQPVNPKP [YPR182W 5-17], the normalised SPOT signal, Boehringer light units (BLU); mean over the file's lines of this peptide stood at 124.

As to SFVDKRNPVDNKP [YOL008W 79-91], the normalised SPOT signal, Boehringer light units (BLU); mean over the file's lines of this peptide is 92.9. With SETKSVPSIEPFKP [YER032W 653-666] the figure was 62.5; with SKGARFLPAPHRP [YGR154C 61-73], 1020. SLEHDGRPKTIKP [YKL077W 80-92] returned a normalised SPOT signal, Boehringer light units (BLU); mean over the file's lines of this peptide of 56.6. SEKPEETPNPLKP [YKL077W 65-77] gave a normalised SPOT signal, Boehringer light units (BLU); mean over the file's lines of this peptide of 85.4. With SNASVADAKEPSRP [YJR138W 1326-1339] the figure was 46. For the molecule SISSKIRPTPRKP [YER118C 2-14], the normalised SPOT signal, Boehringer light units (BLU); mean over the file's lines of this peptide was 15700. Molecule SGKMRSRSSSPVRP [YKL185W 433-446] displayed a normalised SPOT signal, Boehringer light units (BLU); mean over the file's lines of this peptide of 560. Molecule SNNVYSSEYHPIKP [YDL180W 227-240] gave a normalised SPOT signal, Boehringer light units (BLU); mean over the file's lines of this peptide of 12.1. SSFTSQDSQKPLKP [YDL240W 56-69] yielded a normalised SPOT signal, Boehringer light units (BLU); mean over the file's lines of this peptide of 113. In turn, SNGAIQTGLQPLKP [YOR329C 434-447] yielded a normalised SPOT signal, Boehringer light units (BLU); mean over the file's lines of this peptide of 70.4. As for SKRKPSPPSQRRP [YPL141C 761-773], the normalised SPOT signal, Boehringer light units (BLU); mean over the file's lines of this peptide stood at 6670. SMTTRSSHNDPIKP [YAL047C 42-55] displayed a normalised SPOT signal, Boehringer light units (BLU); mean over the file's lines of this peptide of 205. Turning to SISEQYYPEEPTKP [YGR019W 2-15], the normalised SPOT signal, Boehringer light units (BLU); mean over the file's lines of this peptide is 60.4. With SFTIPFLPKIPQKP [YLR164W 23-36] the figure was 22800.

In the case of SLLEFPLTDLPKKP [YLR047C 278-291], the normalised SPOT signal, Boehringer light units (BLU); mean over the file's lines of this peptide is 118. The figure for SKEVTRASTSPPRP [YDR538W 41-54] is 226; for SIPSKNTPDASKP [YLR335W 355-367] it is 64.2. For SIYTSWARDNPSKP [YHR209W 240-253], the normalised SPOT signal, Boehringer light units (BLU); mean over the file's lines of this peptide was found to be 178. SHKQKRTLANPDKP [YPR079W 40-53] showed a normalised SPOT signal, Boehringer light units (BLU); mean over the file's lines of this peptide of 164. In turn, SNIVSILPEGAKP [YKL015W 850-862] showed a normalised SPOT signal, Boehringer light units (BLU); mean over the file's lines of this peptide of 106. On to SDTNDIKTPHPERP [YER169W 626-639], for which the normalised SPOT signal, Boehringer light units (BLU); mean over the file's lines of this peptide was determined as 114.

Molecule SLKFSLLNHHPYKP [YPR025C 204-217] returned a normalised SPOT signal, Boehringer light units (BLU); mean over the file's lines of this peptide of 186. With SLHWTGIPFLGKP [YCR025C 79-91] the figure was 116. SNSSTAGLVAPLKP [YDR158W 154-167]: the normalised SPOT signal, Boehringer light units (BLU); mean over the file's lines of this peptide stood at 61.1.

Molecule SDINQLQGVYPSRP [YBR026C 64-77] displayed a normalised SPOT signal, Boehringer light units (BLU); mean over the file's lines of this peptide of 98.7. SSSIKLQDQDPSKP [YOR205C 26-39]: the normalised SPOT signal, Boehringer light units (BLU); mean over the file's lines of this peptide was found to be 46. Regarding SNMTFQYPGTTKP [YNL014W 670-682], the normalised SPOT signal, Boehringer light units (BLU); mean over the file's lines of this peptide amounted to 144.

In the case of SGLDGILEDEPSRP [YPR117W 1516-1529], the normalised SPOT signal, Boehringer light units (BLU); mean over the file's lines of this peptide amounted to 30.6.
